Holding throughout (assay type): cell-based
Data set [1] has as its target T1, wild-type human Mdr1 protein (Homo sapiens, UniProt P08183).
T1 construct: expressed in transfected cells; host or cells: S. cerevisiae WKK6 (CY20, ste6::HIS3), plasmid Cadus 1097
Nature of the data set: Halo assay of a-factor transport by human Mdr1 in ste6 yeast on supersensitive MATα lawn. As to conditions: yeast deleted for STE6; halo size 1097>1079~1065>1019. As to the method:
A “halo” assay was performed by patching WKK6 cells containing the various Mdr1 constructs (1019, 1065, 1079 & 1097) onto a lawn of Matα cells which are supersensitive to a-factor (CY32=MATα leu2-3.112 trp1-289 ura3-52 his3*1 sst2*2 GAL+).

Data set [2] has as its target T2, STE3 (Saccharomyces cerevisiae, UniProt P06783).
T2 construct: fragment containing the entire coding region of STE3 flanked by the two newly introduced Spe I sites; expressed in transfected cells; host or cells: S. cerevisiae CY599 / CY2012 (ste2-STE3, chromosomal replacement with Cadus 1147)
T2 sequence (P06783 1-470): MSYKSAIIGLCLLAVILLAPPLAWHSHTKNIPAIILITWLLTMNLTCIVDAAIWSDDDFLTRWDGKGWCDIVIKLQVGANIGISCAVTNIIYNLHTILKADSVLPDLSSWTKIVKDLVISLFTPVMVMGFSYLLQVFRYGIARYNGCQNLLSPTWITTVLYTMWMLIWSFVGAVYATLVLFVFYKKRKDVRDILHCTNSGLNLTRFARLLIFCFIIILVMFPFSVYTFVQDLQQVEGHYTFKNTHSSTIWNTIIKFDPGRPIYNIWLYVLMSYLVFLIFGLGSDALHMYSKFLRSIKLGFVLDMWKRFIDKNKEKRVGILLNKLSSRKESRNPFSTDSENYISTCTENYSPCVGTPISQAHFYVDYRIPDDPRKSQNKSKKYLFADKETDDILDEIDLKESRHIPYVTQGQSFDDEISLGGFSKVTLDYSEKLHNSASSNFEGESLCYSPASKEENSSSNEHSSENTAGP
Nature of the data set: Autocrine yeast (CY599/CY2012, ste2-STE3) growth on histidine-deficient medium plus aminotriazole, fus1-HIS3 readout. As to conditions: for ability of the peptide-encoding plasmid to confer the His phenotype on CY2012 (a-factor analogues): -His medium with 0.2 mM 3-aminotriazole, random a-factor library. The source says: A MATa strain designed for the expression of peptides in the context of MFA1 (i.e., using the MFA1 expression vector, Cadus 1239) has been constructed. The genotype of this strain, designated CY599, is […] mfa1 mfa2 far1-1 his3::fus1-HIS3 ste2-STE3 ura3 met1 ade1 leu2. In this strain, Cadus 1147 (see above) was used to replace STE2 with a hybrid gene in which the STE3 coding region is under the control of expression elements which normally drive the expression of STE2. As a result, the a-factor receptor replaces the α-factor receptor. The genes which encode a-factor are deleted from this strain: the far1 mutation abrogates the arrest of growth which normally follows stimulation of the pheromone response pathway; and the FUS1-HIS3 hybrid gene (integrated at the HIS3 locus) provides a selectable signal of activation of the pheromone response pathway. CY599 cells were expected to be capable of the transport of a-factor or a-factor-like peptides encoded by oligonucleotides expressed from Cadus 1239 by virtue of expression of the endogenous yeast transporter, Ste6.
Experiments were performed to test: 1. the ability of Cadus 1239 to function as a vector for the expression of peptides encoded by synthetic oligonucleotides; 2. the suitability of the oligonucleotides, as designed, to direct the export of farnesylated, carboxymethylated peptides through the pathway normally used by a-factor; 3. the capacity of CY599 to export these peptides; and 4. the ability of CY599 to respond to those peptides that stimulate the pheromone response pathway by growing on selective media. These tests were performed using an oligonucleotide which encodes the 12 amino acid a-factor; specifically, the degenerate sequence (NNN)n in the oligo-nucleotide cloned into Cadus 1239 (see above) (with n=12) encodes the peptide component of a-factor pheromone. CY599 was transformed with the resulting plasmid (Cadus 1220), and transformants selected on uracil-deficient medium were transferred to histidine-deficient medium supplemented with a range of concentrations of aminotriazole. […] Cadus 1220 and the designed oligonucleotide are competent to direct the expression and export of a farnesylated, carboxy-methylated peptide encoded by the (NNN)n sequence of the synthetic oligonucleotide; and 2. CY599 can, in an autocrine fashion, respond to a farnesylated, carboxy-methylated peptide that stimulates its pheromone response pathway, in this case signaling initiates as a-factor binds to STE3.
An optimized version of strain 6 (Example 2 above) was derived. This yeast strain, CY2012 (MATa ste2-STE3 far1Δ1442 mfa1::LEU2 mfa2-lacZ fus1-HIS3 tht1-1 ura3 leu2 his3 trp1 ste2), was constructed as follows. […]

Data set [3] has as its target T3, STE2 receptor (Saccharomyces cerevisiae, UniProt D6VTK4).
T3 construct: endogenous in cells; host or cells: S. cerevisiae MATa CY588 / CY1455
T3 sequence (D6VTK4 1-431): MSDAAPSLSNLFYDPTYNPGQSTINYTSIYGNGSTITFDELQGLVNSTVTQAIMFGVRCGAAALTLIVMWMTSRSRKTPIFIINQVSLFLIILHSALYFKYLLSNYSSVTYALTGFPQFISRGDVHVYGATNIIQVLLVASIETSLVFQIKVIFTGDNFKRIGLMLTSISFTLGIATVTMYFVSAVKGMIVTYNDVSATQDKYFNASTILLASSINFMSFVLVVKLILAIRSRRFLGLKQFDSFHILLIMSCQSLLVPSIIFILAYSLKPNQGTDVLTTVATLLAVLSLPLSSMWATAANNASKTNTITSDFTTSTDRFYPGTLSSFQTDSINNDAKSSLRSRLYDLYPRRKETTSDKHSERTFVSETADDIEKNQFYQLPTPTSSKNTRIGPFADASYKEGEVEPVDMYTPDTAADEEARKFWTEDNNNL
The experiment in a line: Autocrine MATa yeast (CY588/CY1455) growth on histidine-deficient medium plus aminotriazole, fus1-HIS3 readout. Conditions: -His medium with 1.0 mM or 2.5 mM aminotriazole.

For data set [4], the system named is WKK6 cells. Nature of the data set: Valinomycin filter disk assay on lawns of ste6 yeast (WKK6) expressing human Mdr1 constructs. Conditions: 5 mM valinomycin in DMSO on filter disk. The procedure: CADUS plasmids 1065, 1079 and 1097 as well as a URA3 control plasmid (pRS426=1019) were transformed into a ura3^−, ste6^− strain of yeast (WKK6=CY20=MATa ura3-1 leu2-3.112 his3-11.15 trp1-1 ade2-1 can1-100 ste6::HIS3, obtained from Karl Kuchler). Individual transformants were grown overnight in SD-URA media and lawns containing approximately 5×10^6 cells were poured onto YPD plates in 3 ml of YPD top agar. Sterile filter disks were placed on the plates after the top agar had solidified, and […] of DMSO or 5 mM valinomycin in DMSO were spotted onto the filter disks.

Ends that are not written are not given here.

T1 sequence (P08183 whole entry): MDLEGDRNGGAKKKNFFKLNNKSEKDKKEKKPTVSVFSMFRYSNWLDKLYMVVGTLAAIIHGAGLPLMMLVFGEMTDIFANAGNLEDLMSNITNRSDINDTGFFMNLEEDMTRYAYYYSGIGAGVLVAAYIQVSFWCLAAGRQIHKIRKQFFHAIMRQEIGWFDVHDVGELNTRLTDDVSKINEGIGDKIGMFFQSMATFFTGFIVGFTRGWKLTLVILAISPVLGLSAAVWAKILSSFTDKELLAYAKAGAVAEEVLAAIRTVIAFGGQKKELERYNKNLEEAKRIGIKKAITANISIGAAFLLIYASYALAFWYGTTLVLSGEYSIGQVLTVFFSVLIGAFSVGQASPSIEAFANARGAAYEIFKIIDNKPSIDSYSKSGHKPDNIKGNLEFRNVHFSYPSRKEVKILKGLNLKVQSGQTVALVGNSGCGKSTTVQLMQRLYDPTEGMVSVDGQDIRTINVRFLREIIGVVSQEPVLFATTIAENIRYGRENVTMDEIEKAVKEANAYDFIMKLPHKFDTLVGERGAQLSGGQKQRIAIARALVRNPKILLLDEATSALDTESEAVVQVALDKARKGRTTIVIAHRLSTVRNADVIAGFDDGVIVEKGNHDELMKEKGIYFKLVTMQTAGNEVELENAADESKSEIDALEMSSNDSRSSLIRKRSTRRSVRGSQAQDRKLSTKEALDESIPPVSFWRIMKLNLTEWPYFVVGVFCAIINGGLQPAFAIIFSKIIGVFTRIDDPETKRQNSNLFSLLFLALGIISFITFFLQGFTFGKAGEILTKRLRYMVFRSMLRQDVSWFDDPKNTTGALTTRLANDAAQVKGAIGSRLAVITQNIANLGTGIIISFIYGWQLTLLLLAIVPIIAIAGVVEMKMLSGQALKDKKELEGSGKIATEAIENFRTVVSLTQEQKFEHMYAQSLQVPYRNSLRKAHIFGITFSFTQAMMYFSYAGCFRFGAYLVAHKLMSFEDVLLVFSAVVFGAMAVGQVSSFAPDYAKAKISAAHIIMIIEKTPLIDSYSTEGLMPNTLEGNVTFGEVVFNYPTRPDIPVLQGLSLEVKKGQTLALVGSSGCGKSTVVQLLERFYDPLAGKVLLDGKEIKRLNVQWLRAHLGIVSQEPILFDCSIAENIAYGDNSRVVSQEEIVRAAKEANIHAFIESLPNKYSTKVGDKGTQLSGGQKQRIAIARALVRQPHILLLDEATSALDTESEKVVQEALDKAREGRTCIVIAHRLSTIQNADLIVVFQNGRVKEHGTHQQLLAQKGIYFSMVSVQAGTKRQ

For the molecule “Tyr Ile Ile Lys Gly Val Phe Trp Asp Pro Ala (YIIKGVFWDPA; not fully specified (C-terminus); printed as Tyr Ile Ile Lys Gly Val Phe Trp Asp Pro Ala; also: C-terminal cysteine carboxymethylated) [a-factor, yeast dodecapeptide mating pheromone with C-terminal farnesylated, carboxymethylated cysteine, reference compound]”, the “transport by wild-type human Mdr1 protein” value in data set [1] is “can be transported”. In addition, in data set [2] (CY599 transformed with Cadus 1220, range of aminotriazole concentrations), the “aminotriazole-resistant growth on histidine-deficient media (autocrine response, a-factor binds to STE3)” value was “enhanced aminotriazole-resistant growth”.
In the case of WHWMELRPGQPMY [SEQ ID NO:51], in data set [3], the “agonist activity on the STE2 receptor, MFα-5.8 library” value is recorded as “acted as agonists”.
The same measure, in the same setting: with “Trp His Trp Leu Gln Leu Thr Pro Gly Gln Pro Met Tyr (WHWLQLTPGQPMY) [SEQ ID NO:47]” the entry was “acted as agonists”; with WHWLELMPGQPLY [SEQ ID NO49], “acted as agonists”.
On to YALFVHFFDIP [SEQ ID NO:53], for which the “ability of the peptide-encoding plasmid to confer the His phenotype on CY2012 (a-factor analogues)” value in data set [2] was “confer the His^− phenotype”.
On the same count and under the same terms, with FKGQVRFVVLA [SEQ ID NO:55] the entry was “confer the His^− phenotype”; with LMSPSFFFLPA [SEQ ID NO:57], “confer the His^− phenotype”.
Regarding `CC(C)[C@@H]1NC(=O)[C@H](C)OC(=O)[C@@H](C(C)C)NC(=O)[C@@H](C(C)C)OC(=O)[C@H](C(C)C)NC(=O)[C@H](C)OC(=O)[C@@H](C(C)C)NC(=O)[C@@H](C(C)C)OC(=O)[C@H](C(C)C)NC(=O)[C@H](C)OC(=O)[C@@H](C(C)C)NC(=O)[C@@H](C(C)C)OC1=O` [valinomycin], the “resistance to valinomycin conferred by mutant Mdr1 (G185V)” value in data set [4] (WKK6 cells with plasmid 1079) is on record as “weak resistance”. Moreover, the “resistance to valinomycin conferred by wild type Mdr1” value in data set [4] (WKK6 cells with plasmid 1097) is recorded as “complete resistance”.
